Experimental data published in PMC5992326, “Structural Basis for the Initiation of Glycosaminoglycan Biosynthesis by Human Xylosyltransferase 1” (Structure(London, England:1993), 2018).

B1: Peptide 1 (bikunin-derived acceptor peptide, wild-type sequence) (peptide)
peptide: QEEEGSGGGQGG
notes: bikunin (part of the AMBP precursor) around the acceptor serine S215; position 0 is the acceptor serine; also called active peptide 1; bikunin-derived peptide 1; source: synthetic peptide (Genscript)
B2: Peptide 2 (inactive bikunin-derived peptide, acceptor serine replaced by alanine) (peptide)
peptide: QEEEGAGGGQGG
notes: bikunin (part of the AMBP precursor) around the acceptor site S215, with the acceptor serine changed to alanine; source: synthetic peptide (Genscript)
B3: Peptide 8 (syndecan 1-derived acceptor peptide) (peptide)
peptide: PAAEGSGEQDFT
notes: syndecan 1 around the acceptor serine S206; position 0 is the acceptor serine; source: synthetic peptide (Genscript)

Target: T1, human xylosyltransferase 1 (XT1), residues 232-959 (human, UniProt Q86Y38 232-959, N-linked glycosylation at N777)
T1 construct: human xylosyltransferase 1 (XT1), residues 232-959, amplified from a Dharmacon cDNA clone; The vector is a modified pCEP-Pu (pCEP-Pu-N-His-TEV, Pulido et al., 2017); also called peptide O-xylosyltransferase; XYLT1; source: FreeStyle 293-F (HEK293-F) cells, transfected, secreted; purified (HisTrap Excel, HiTrap Heparin, Superdex 200); not shown: His-tag (TEV protease-cleavable), N-terminal, kept
T1 sequence (looked up): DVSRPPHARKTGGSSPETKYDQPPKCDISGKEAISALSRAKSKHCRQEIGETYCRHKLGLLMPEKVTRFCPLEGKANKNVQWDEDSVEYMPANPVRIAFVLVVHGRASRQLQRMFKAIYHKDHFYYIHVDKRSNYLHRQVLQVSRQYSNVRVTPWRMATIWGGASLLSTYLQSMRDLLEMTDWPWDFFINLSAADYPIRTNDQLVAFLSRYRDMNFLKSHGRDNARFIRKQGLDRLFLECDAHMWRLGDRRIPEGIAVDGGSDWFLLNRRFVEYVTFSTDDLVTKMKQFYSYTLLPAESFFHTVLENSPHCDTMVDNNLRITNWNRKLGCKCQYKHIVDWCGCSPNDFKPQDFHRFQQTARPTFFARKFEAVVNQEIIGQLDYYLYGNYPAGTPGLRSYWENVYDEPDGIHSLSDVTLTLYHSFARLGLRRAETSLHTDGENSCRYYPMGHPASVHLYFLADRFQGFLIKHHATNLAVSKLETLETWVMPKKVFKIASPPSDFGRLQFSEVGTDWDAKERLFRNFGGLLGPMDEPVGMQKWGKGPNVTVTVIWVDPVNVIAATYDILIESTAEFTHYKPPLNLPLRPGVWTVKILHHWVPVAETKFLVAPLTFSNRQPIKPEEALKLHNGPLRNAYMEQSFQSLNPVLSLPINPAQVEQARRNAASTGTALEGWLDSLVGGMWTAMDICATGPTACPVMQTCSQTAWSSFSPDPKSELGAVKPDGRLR
Test: crystal structure; XT1 crystals (hanging drop, Morpheus condition, pH 7.5) soaked with peptide (0.5 or 0.7 mM); for peptide 2 together with UDP-xylose (3.5 mM), giving a ternary complex
Conditions: both partners purified

Binding result, binds:
B1
B2
B3
